Experimental data taken from the supplement of paper PMC9170038.

These sequences were tested on MS2 coat protein (assay: apparent KD of MS2 coat protein, switch ON state; designed switch direction (-1 OFF switch, 1 ON switch): 1; higher = weaker reporter binding). Details: FMN input: 0 or 200 uM; Eterna round: R93 (includes R88 designs).
Summary of the method: (§1)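 Illumina sequencing clusters served as templates for on-chip transcription of the designed RNA switches. SNAP-549-labelled MS2 coat protein was then titrated in twofold steps from 0.7 or 1.5 nM to 3 µM, allowing 0.8–1.5 h per step at first and 10–20 min per step later. The buffer held 100 mM Tris-HCl pH 7.5, 80 mM KCl and 4 mM MgCl2, without or with constant ligand. Apparent KD is the median per design of normalised cluster binding-curve fits.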

Compared with “AACAAACAUGAGGAUCACCCAUGUAGAAACAUGGGAGGAUAUACGAAGACGAAAGUCAAAGUAGAAGGCCUAAAAA [Garnet 91]”, “ACCCGACAUGAGGAUCACCCAUGUAAACAAUCAUGAGGAUAUCCGGAGCAAAUGCUCAAGGGAGAAGGCAUAAAAG [Onrequus]” is 2.3-fold lower in “apparent KD of MS2 coat protein” value: 69.1 nM for the first, 29.5 nM for the second.

Compared with “AUGAGGAAGAGAGAGGAUAUCCAAAGGAAAACAUGAGGAUCACCCAUGUAAAAGGUAGGAAAUUGGGAGAAGGCUCAAGAGAGAG [salish99-ss2-065]”, “AACAAUCUAUCUGAGGAUAUCAUUUCAAAGACAUGAGGAUCACCCAUGUGCAGGAAAACUGCAAAUGAGAAGGCAGAUAGAUUGA [SS2: 1107]” is 2.3-fold lower in “apparent KD of MS2 coat protein” value: 23.4 nM for the first, 10.3 nM for the second.

“UAUCAUUACACGAAGGAUAUCGAUAAUUGAACAUGAGGAUCACCCAUGUGCCAUCCCUUACAGUUCGAGAAGGUCGAGGGUGAAG [JR_SS002_Sub707]” was tested, and the “apparent KD of MS2 coat protein” value was 142 nM.

What follows are sequences tested on MS2 coat protein (assay: apparent KD of MS2 coat protein, switch OFF state (with FMN for OFF switches, without FMN for ON switches); designed switch direction (-1 OFF switch, 1 ON switch): -1; higher = weaker reporter binding). Details: FMN input: 0 or 200 uM; Eterna round: R93 (includes R88 designs).
Summary of the method: as §1

Going from “CUCAAGUGAGGAUAUCAGUAGUAAAAAAAUAAAAUUACUACUGAGAAGGCACAUGAGGAUCACCCAUGUUCCAA [EX4 342: Super Stable 42]” to “AGCUAGUCAGGAUAUACGCAAACGAACGAAGCAGAGAAGGGACAUGAGGAUCACCCAUGUAGAAGGGACUAGCA [Diamond 31]”, the “apparent KD of MS2 coat protein” value falls from 181 nM to 84.9 nM (2.1-fold).

“AAAACUGGAGGAUAUACAUGAGGAUCACCCAUGUGUGGAUGAGCUGUGUCGGCGUCAGGUAGAAGGCCACAAAA [Gilly Gone Silly 35 - Jieux - Exclusion 3]” and “GGAAAACAUGAGGAUCACCCAUGUGAGGAUAUCGAUGUCCAAAAAAGAGUGCGGGACUCGAGAAGGCACUUGGA [salish99-ex1-43]” are within 1.5-fold of each other in “apparent KD of MS2 coat protein” value: 43.1 nM for the first, 32.5 nM for the second.

“GAAAAGAGAGGAUAUACUUUGGGAAAAGAAAAGAUGAUGUUACAUGAGGAUCACCCAUGUAGAAGGCUCAAAAA [Mat - Exclusion 2 - Mod - D156]” and “GAAAAGUCAGGAUAUGUGGAAAAAAUAAAAAAAAUAAAAACACAGAAGGGACAUGAGGAUCACCCAUGUAAAAG [Mat - Exclusion 4 - Mayanna - D141]” are within 1.5-fold of each other in “apparent KD of MS2 coat protein” value: 44.6 nM for the first, 62.2 nM for the second.

“AAACCACAUGAGGAUCACCCAUGUGAGGAUAUGAACGAAAAUAAAUAAAAAUAAAAGUUCAGAAGGCACAAAAA [66%, Wbt, 12]” and “AGUACUACAGGAUAUACGAGGGAGGUCCACGUGAACCUUAUACAUGAGGAUCACCCAUGUAGAAGGGUAGUACA [Ex2 Design 108: Super Stable 8]” are within 1.5-fold of each other in “apparent KD of MS2 coat protein” value: 23.6 nM for the first, 18.4 nM for the second.

First: UAAAACCUAGGAUAUACAUGAGGAUCACCCAUGUGGCACUCCGCAGGCAUUGUUCCCAGUAGAAGGAGGACACG [Inan]
Second: AAGAACGGAGGAUAUACAUGAGGAUCACCCAUGUAAAAGAAAGAAGGGAAAGAGAAAAGUAGAAGGCCGAAGAA [Usermaatre-setepenamun Pedubast]
The “apparent KD of MS2 coat protein” value of the first is 2.1-fold lower: 23.9 nM for the first, 50.8 nM for the second.

“AAGAAUGCAGGAUAUACAUGAGGAUCACCCAUGUAAAAGAAAGAAAGGGAAAAGAAAAGUAGAAGGGCAAAGAA [Usermaatre-setepenamun Osorkon II]” and “AGAAAACAUGAGGAUCACCCAUGUCAGGAUAUGAAAAAGAAAAGAAAAGAAAGAAGAAUCAGAAGGGACAAGAA [Senedj]” are within 1.5-fold of each other in “apparent KD of MS2 coat protein” value: 36.5 nM for the first, 40.3 nM for the second.

First: GAAAAACAUGAGGAUCACCCAUGUAAGGAUAUGCUGAAAAACACGGAAAAAACGUGCAGCAGAAGGUACAAAAA [Mat - Exclusion 1 - Eli mod - D92]
Second: AAGAAUGGAGGAUAUACAAGAAAGAAAGAAAAGAAAAGAAAACAUGAGGAUCACCCAUGUAGAAGGCCAUAGAA [EteRNA is fun!]
The “apparent KD of MS2 coat protein” value of the first is 2-fold higher: 28.1 nM for the first, 13.8 nM for the second.

“AAGAAGUGAGGAUAUCGAAGACUGUCGAAAAGACAGUCGAACGAGAAGGCACAUGAGGAUCACCCAUGUGGGAA [Marsurpial 65% 6]” and “AAAGGACGAGGAUAUACAUGAGGAUCACCCAUGUAAAAAGCAUAAUAAAAGAACUUAUGUAGAAGGCGUCCAAA [69%, Moding Meechl, 5]” are within 1.5-fold of each other in “apparent KD of MS2 coat protein” value: 171 nM for the first, 189 nM for the second.

Going from “AGCUAGUGAGGAUAUGCGAACAUGUCAAAAGACGUGAAGGGACAUGAGGAUCACCCAUGUAGAAGGCACUAGCA [JL 74% mod 3]” to “AAAAAACAUGAGGAUCACCCAUGUGAGGAUAUGCAAAACCCAUAUAAAAAGGGAAAAAGCAGAAGGCGCAAAAA [Starry Exclusion 1.4 (wbt round 1 mod)]”, the “apparent KD of MS2 coat protein” value falls from 36.3 nM to 24.2 nM (1.5-fold).

“AGUCUGAGAGGAUAUACAUGGAAAAAAAAAGUUAGAUCCCUACAUGAGGAUCACCCAUGUAGAAGGCUCUGACA [Ex2 Design 149: Sub-opt 13]” and “AAAAAGUGAGGAUAUGGUAAAAAAAAAAAAAAAAAAAACCUCCAGAAGGCACAUGAGGAUCACCCAUGUCAAAA [Jolly's Folly 3 - Jieux - Exclusion 4]” are within 1.5-fold of each other in “apparent KD of MS2 coat protein” value: 15.2 nM for the first, 19 nM for the second.

Compared with “AACAGGUUAGGAUAUAUGUAACAAAUAAAAAAAAUAUAAACAUAGAAGGAACAUGAGGAUCACCCAUGUUAACA [May 29]”, “AGAAAGCGAGGAUAUACUAAGAAACCUCAAAGAAAGAAGAAACAUGAGGAUCACCCAUGUAGAAGGCGCAAAGA [JR_Exc002_Sub002]” is 3.6-fold higher in “apparent KD of MS2 coat protein” value: 19.4 nM for the first, 70.8 nM for the second.

“AACAGGAGAGGAUAUACAUGAGGAUCACCCAUGUAGGAAACAAGCAGAGUACCAAAAAGUAGAAGGCUCAUGGA [Ruby 32]” and “AAGAACUGAGGAUAUACAUGAGGAUCACCCAUGUAAAAGAAAGAAAGGGAAAAGAAAAGUAGAAGGCAGAAGAA [Menmaatre-setpenptah Ramesses XI]” are within 1.5-fold of each other in “apparent KD of MS2 coat protein” value: 43.1 nM for the first, 59.4 nM for the second.

“AAAAAACAUGAGGAUCACCCAUGUGAGGAUAUGCGAAAAAAAAAAUAAAAAAAAAAAAGCAGAAGGCACAAAAA [LROPPY Exclusion 1 - v05_deltaG=1.64]” and “GAAGAACAUGAGGAUCACCCAUGUCAGGAUAUACAGAAGGGAAUAAUAUAAUCUGGAAGUAGAAGGGACAAGAA [Ex 1 May 45]” are within 1.5-fold of each other in “apparent KD of MS2 coat protein” value: 58.5 nM for the first, 51.4 nM for the second.

Compared with “AGGUUGUCAGGAUAUGCGUGAAGAAUAAAACAAAUAACAACGCAGAAGGGACAUGAGGAUCACCCAUGUUAAGA [May 47]”, “AGCUCGGUAGGAUAUACAAAAUGAUUGCGAAAGCAAUCAACACAUGAGGAUCACCCAUGUAGAAGGACCGAGCA [Mat - Exclusion 2 - JL-Eli mod - D42]” is 2.4-fold lower in “apparent KD of MS2 coat protein” value: 48.3 nM for the first, 20 nM for the second.

Going from “GAAAAUCGAGGAUAUACAUGAGGAUCACCCAUGUCAAAAAAUGACUACACAAAAGAAAGUAGAAGGCGAUAAAG [Mat - Exclusion 3 - Mayanna mod - D130]” to “GCUGUGGUAGGAUAUACAUGAGGAUCACCCAUGUGAGAGAAAAAAGUGAGAAAGAAAAGUAGAAGGACCGUAGG [salish99-ex3-101]”, the “apparent KD of MS2 coat protein” value rises from 31.2 nM to 78.9 nM (2.5-fold).

First: GCUGGGCAAGGAUAUACAUGAGGAUCACCCAUGUGAGAGAAAAAAGUGAGAAAGAAAAGUAGAAGGUGCUUAGG [salish99-ex3-119]
Second: AACAUACAUGAGGAUCACCCAUGUCAGGAUAUGCCGGGUUAGAACCAACUAAAAAAACGUAGAAGGGACAAAAA [Bilbo Confounded 5 - Jieux - Exclusion 1]
The “apparent KD of MS2 coat protein” value of the first is 1.7-fold higher: 77.9 nM for the first, 46.7 nM for the second.

“GGUUGACAAGGAUAUACAUGAGGAUCACCCAUGUGAGAGAAAAAAGUGAGAAAGAAAAGUAGAAGGUGUUGACG [salish99-ex3-62]” and “UAAAGACAUGAGGAUCACCCAUGUGAGGAUAUCGGAGAUAACAGAACAUCAAGUUCAGCGAGAAGGCACAGGAA [JR_Exc001_Sub403]” are within 1.5-fold of each other in “apparent KD of MS2 coat protein” value: 85 nM for the first, 65.5 nM for the second.

“AGGAAACAUGAGGAUCACCCAUGUGAGGAUAUGAGAAAGAAAAGAAAAGAAAGAAGAAUCAGAAGGCACAAGAA [Raneb]” and “AAGUUGCUAGGAUAUACUUGGGCAACAAAUGAACCAAUAUAACAUGAGGAUCACCCAUGUAGAAGGAGCAGAAA [JR_Exc002_Sub301]” are within 1.5-fold of each other in “apparent KD of MS2 coat protein” value: 46.6 nM for the first, 63.5 nM for the second.

Going from “AAAAAACAUGAGGAUCACCCAUGUGAGGAUAUGCGAAAAAAAAAAUAAAAAAAAAAAAGUAGAAGGCACACCAA [Mat - Exclusion 1 - Eli mod - D55]” to “AAAGAUGCAGGAUAUACAUGAGGAUCACCCAUGUUAGACCUGAAAAGGGAAAAAGAAAGUAGAAGGGCAUAAAA [Ex 3 May 32]”, the “apparent KD of MS2 coat protein” value falls from 44.1 nM to 17 nM (2.6-fold).
